Source: paper PMC8903895

Molecular target: dengue virus envelope protein (dengue virus serotype 2 strain New Guinea C)
Test: proximity ligation

Q: For “dengue virus capsid protein (natural protein)”, which PLA foci per cell (WT cells) (foci per cell) is on record?
A: 11

Q: What about the PLA foci per cell (YBX1 KO1 cells) (foci per cell) of the same substance?
A: 5

Q: And the PLA foci per cell (YBX1 KO2 cells) (foci per cell)?
A: 7

Q: Which PLA foci per cell (WT cells) (foci per cell) does the source give for “dengue virus prM protein (natural protein)” here?
A: 26

Q: What about the PLA foci per cell (YBX1 KO1 cells) (foci per cell) of the same substance?
A: 58

Q: And the PLA foci per cell (YBX1 KO2 cells) (foci per cell)?
A: 27
